Where two headings read alike, the source gives them in different places.
Tests used:
human PD-L1 [1] = target: T1, human PD-L1 (human, UniProt Q9NZQ7 19-290); test: FACS; panel A
human PD-L1 [2] = target: T1, human PD-L1; test: FACS; panel B
human PD-L1 [3] = target: T1, human PD-L1; test: FACS; panel C
human PD-L1 [4] = target: T1, human PD-L1; test: FACS binding to CHO-K1/hPD-L1 cells
human OX40 = target: T2, human OX40 (human, UniProt P43489 29-277); test: FACS
T2 chain: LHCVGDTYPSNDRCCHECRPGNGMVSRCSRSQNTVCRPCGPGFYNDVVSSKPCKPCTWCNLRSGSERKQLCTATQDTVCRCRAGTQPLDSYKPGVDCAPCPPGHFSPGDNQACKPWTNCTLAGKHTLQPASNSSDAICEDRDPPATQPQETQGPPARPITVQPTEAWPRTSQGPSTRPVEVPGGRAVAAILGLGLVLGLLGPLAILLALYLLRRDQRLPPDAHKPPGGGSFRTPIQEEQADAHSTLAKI

human 4-1BB [5] = target: T3, human 4-1BB (human, UniProt Q07011 24-255); test: FACS
human PSMA [6] = target: T4, human PSMA (human, UniProt Q04609 1-750); test: FACS binding to LNCaP cells
human PSMA [7] = target: T4, human PSMA; test: FACS binding to LNCaP cells; remark: listed apart in the source
[8] = target: T5, cynomolgus monkey OX40-His protein (cynomolgus monkey); test: ELISA
T5 chain: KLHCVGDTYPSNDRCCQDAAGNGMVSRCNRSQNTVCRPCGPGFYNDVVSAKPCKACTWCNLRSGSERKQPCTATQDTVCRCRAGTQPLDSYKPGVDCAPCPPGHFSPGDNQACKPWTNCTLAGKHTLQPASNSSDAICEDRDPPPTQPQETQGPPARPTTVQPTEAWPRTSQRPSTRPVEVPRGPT

human 4-1BB [9] = target: T3, human 4-1BB; test: FACS; remark: listed apart in the source
cynomolgus monkey 4-1BB = target: T6, cynomolgus monkey 4-1BB (cynomolgus monkey); test: FACS
T6 chain: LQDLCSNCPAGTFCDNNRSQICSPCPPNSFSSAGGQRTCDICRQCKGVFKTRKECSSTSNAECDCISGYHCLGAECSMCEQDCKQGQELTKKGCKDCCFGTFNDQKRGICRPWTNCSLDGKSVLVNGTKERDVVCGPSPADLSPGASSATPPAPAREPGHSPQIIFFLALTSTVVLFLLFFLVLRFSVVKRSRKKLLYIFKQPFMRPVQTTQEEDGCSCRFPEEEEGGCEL

human 4-1BB [10] = target: T3, human 4-1BB; test: FACS; remark: listed apart in the source
human CLDN18.2 = test: FACS binding to NUGC-4 cells
human 4-1BB [11] = target: T3, human 4-1BB; test: FACS; remark: listed apart in the source
human 4-1BB [12] = target: T3, human 4-1BB; test: FACS; FIG. 5
human 4-1BB [13] = target: T3, human 4-1BB; test: FACS; FIG. 6
human 4-1BB [14] = target: T3, human 4-1BB; test: FACS; panel A
human 4-1BB [15] = target: T3, human 4-1BB; test: FACS; panel B
human 4-1BB [16] = target: T3, human 4-1BB; test: FACS; panel A; remark: listed apart in the source
human 4-1BB [17] = target: T3, human 4-1BB; test: FACS; panel B; remark: listed apart in the source
human 4-1BB [18] = target: T3, human 4-1BB; test: FACS; panel C

T1 sequence (Q9NZQ7 19-290): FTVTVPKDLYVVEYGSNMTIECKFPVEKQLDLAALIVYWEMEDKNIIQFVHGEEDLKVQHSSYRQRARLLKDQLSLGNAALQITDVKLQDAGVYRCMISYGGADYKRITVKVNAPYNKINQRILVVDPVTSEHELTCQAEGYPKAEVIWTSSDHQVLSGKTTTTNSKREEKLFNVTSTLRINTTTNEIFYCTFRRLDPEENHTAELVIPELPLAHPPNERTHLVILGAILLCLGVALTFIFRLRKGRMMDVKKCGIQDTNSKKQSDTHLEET
T4 sequence (Q04609 whole entry): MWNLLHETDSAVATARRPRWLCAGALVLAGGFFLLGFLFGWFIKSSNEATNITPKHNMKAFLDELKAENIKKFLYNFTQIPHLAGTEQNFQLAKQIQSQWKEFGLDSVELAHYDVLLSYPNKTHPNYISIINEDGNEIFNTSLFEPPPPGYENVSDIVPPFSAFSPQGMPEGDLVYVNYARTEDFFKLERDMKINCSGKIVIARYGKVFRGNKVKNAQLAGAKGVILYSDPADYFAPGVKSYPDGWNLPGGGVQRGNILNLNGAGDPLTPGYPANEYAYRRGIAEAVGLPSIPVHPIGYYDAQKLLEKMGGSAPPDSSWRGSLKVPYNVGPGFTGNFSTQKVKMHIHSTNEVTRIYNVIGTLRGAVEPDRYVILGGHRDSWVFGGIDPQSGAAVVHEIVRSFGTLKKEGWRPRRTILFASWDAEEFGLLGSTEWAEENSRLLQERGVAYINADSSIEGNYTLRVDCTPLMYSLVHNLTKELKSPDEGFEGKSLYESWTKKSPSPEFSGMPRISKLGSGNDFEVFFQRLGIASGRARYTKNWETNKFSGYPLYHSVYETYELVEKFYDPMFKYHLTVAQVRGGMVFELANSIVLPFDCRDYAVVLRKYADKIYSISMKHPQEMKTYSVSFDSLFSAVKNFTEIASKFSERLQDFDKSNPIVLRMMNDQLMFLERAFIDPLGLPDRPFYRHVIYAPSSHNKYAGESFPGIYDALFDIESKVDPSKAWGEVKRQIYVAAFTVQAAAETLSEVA

B1: PR000265, anti-PD-L1 91G3H5H3(D54E), hIgG1(N297A) (antibody, V domains shown)
VH: EVQLVESGGGLVQPGGSLRLSCAASGFTFSSYWMSWVRQAPGKGLEWVANIKQEGSEKYYVDSVKGRFTISRDNAKNSLYLQMNSLRAEDTAVYYCARDRAVAGAFDIWGQGTMVTVSS
VL: DIQMTQSPSTLSASVGDRVTVTCRASQSIYIWLAWYQQKPGKAPNLLIYKASSLETGVPSRFSGSGSGTEFTLTISSLQPDDFATYYCQQYYGSSRTFGQGTKVEIKR
Binder B1 has an EC50 (human PD-L1 [1]) of 0.781 nM, an EC50 (human PD-L1 [2]) of 0.356 nM and an EC50 (human PD-L1 [3]) of 1.56 nM. It also gave an EC50 (human PD-L1 [4]) of 1.26 nM.

B2: PR003789 (bispecific antibody)
light: DIQMTQSPSTLSASVGDRVTVTCRASQSIYIWLAWYQQKPGKAPNLLIYKASSLETGVPSRFSGSGSGTEFTLTISSLQPDDFATYYCQQYYGSSRTFGQGTKVEIKRTVAAPSVFIFPPSDEQLKSGTASVVCLLNNFYPREAKVQWKVDNALQSGNSQESVTEQDSKDSTYSLSSTLTLSKADYEKHKVYACEVTHQGLSSPVTKSFNRGEC
heavy: EVQLVESGGGLVQPGGSLRLSCAASGFTFSSYWMSWVRQAPGKGLEWVANIKQEGSEKYYVDSVKGRFTISRDNAKNSLYLQMNSLRAEDTAVYYCARDRAVAGAFDIWGQGTMVTVSSASTKGPSVFPLAPSSKSTSGGTAALGCLVKDYFPEPVTVSWNSGALTSGVHTFPAVLQSSGLYSLSSVVTVPSSSLGTQTYICNVNHKPSNTKVDKKVEPKSCDKTHTCPPCPAPEAAGGPSVFLFPPKPKDTLMISRTPEVTCVVVDVSHEDPEVKFNWYVDGVEVHNAKTKPREEQYNSTYRVVSVLTVLHQDWLNGKEYKCKVSNKALGAPIEKTISKAKGQPREPQVYTLPPSREEMTKNQVSLTCLVKGFYPSDIAVEWESNGQPENNYKTTPPVLDSDGSFFLYSKLTVDKSRWQQGNVFSCSVMHEALHNHYTQKSLSLSPGAEPKSSDKTHTPPPPPEVQLLESGGGLVQPGGSLRLSCAASGFTFSSYAMSWVRQAPGKGLEWVSAISGRGGSTFYADSVRGRFTISRDNSKNTLYLQMNSLRAEDTAMYYCVDGTTGTTDVDYWGQGTLVTVSS
With B2 the EC50 (human OX40) was 3.98 nM and the EC50 (human PD-L1 [4]) was 1.37 nM.

B3: PR003557 (bispecific antibody)
light: DIQMTQSPSSLSASIGDRVTITCRASQSINSYLNWYQQKPGKAPKLLIYTASSLLSGVPSRFSASGSWTDFSLTISSLQPEDFATYYCQQSFSTPYTFGQGTNLEIKRTVAAPSVFIFPPSDEQLKSGTASVVCLLNNFYPREAKVQWKVDNALQSGNSQESVTEQDSKDSTYSLSSTLTLSKADYEKHKVYACEVTHQGLSSPVTKSFNRGEC
heavy: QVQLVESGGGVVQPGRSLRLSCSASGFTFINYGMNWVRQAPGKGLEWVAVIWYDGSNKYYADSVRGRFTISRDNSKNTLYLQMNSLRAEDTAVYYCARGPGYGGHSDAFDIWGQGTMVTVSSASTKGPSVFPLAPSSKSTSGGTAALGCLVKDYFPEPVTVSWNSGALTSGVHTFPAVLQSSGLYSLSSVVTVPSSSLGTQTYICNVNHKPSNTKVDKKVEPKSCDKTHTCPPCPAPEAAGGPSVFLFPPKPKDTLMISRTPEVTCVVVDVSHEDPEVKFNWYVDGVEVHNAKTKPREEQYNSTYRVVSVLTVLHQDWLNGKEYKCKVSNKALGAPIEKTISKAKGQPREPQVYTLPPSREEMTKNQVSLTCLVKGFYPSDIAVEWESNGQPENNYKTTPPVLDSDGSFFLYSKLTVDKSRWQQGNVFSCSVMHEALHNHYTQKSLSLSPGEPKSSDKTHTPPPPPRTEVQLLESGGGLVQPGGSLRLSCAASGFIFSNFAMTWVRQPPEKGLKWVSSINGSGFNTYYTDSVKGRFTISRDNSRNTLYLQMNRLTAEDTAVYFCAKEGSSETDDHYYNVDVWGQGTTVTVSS
Binder B3 has an EC50 (human 4-1BB [5]) of 0.951 nM and an EC50 (human PSMA [6]) of 0.876 nM.

B4: PR003555 (bispecific antibody)
light: DIQMTQSPSSLSASIGDRVTITCRASQSINSYLNWYQQKPGKAPKLLIYTASSLLSGVPSRFSASGSWTDFSLTISSLQPEDFATYYCQQSFSTPYTFGQGTNLEIKRTVAAPSVFIFPPSDEQLKSGTASVVCLLNNFYPREAKVQWKVDNALQSGNSQESVTEQDSKDSTYSLSSTLTLSKADYEKHKVYACEVTHQGLSSPVTKSFNRGEC
heavy: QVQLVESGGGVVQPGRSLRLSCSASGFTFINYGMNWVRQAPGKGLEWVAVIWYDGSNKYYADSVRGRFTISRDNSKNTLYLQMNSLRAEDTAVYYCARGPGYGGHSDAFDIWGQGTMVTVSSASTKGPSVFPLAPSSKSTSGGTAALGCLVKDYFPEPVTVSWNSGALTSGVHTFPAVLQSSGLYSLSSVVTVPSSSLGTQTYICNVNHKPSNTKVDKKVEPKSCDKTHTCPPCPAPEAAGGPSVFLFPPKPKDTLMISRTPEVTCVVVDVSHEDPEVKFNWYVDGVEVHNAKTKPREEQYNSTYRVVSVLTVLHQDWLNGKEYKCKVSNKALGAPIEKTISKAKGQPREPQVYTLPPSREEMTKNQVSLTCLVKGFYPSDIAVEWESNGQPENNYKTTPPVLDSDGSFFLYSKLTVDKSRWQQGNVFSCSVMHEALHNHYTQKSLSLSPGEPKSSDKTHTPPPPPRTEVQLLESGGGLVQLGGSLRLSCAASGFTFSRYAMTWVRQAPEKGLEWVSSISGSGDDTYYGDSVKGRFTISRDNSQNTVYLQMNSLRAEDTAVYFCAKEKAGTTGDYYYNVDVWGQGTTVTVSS
B4 gave an EC50 (human 4-1BB [5]) of 0.819 nM and an EC50 (human PSMA [6]) of 0.802 nM.

B5: PR003556 (bispecific antibody)
light: DIQMTQSPSSLSASIGDRVTITCRASQSINSYLNWYQQKPGKAPKLLIYTASSLLSGVPSRFSASGSWTDFSLTISSLQPEDFATYYCQQSFSTPYTFGQGTNLEIKRTVAAPSVFIFPPSDEQLKSGTASVVCLLNNFYPREAKVQWKVDNALQSGNSQESVTEQDSKDSTYSLSSTLTLSKADYEKHKVYACEVTHQGLSSPVTKSFNRGEC
heavy: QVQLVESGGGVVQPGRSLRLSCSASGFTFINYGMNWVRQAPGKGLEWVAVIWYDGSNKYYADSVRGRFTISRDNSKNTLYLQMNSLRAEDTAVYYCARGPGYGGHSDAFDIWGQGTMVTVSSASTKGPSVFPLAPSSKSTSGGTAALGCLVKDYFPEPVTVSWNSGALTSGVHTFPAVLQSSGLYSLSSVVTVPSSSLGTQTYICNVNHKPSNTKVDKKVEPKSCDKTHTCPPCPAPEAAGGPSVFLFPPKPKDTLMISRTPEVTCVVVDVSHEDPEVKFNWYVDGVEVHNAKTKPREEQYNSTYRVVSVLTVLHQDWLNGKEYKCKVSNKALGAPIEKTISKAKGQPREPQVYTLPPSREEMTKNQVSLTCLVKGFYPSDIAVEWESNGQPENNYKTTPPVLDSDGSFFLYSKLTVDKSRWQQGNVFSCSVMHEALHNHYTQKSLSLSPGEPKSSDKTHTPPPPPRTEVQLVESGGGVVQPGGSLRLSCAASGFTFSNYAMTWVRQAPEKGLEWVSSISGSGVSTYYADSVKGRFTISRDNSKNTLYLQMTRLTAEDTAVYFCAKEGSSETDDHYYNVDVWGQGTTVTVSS
B5 showed an EC50 (human 4-1BB [5]) of 0.476 nM and an EC50 (human PSMA [6]) of 0.687 nM.

B6: PR004284 (bispecific antibody)
light: DIQMTQSPSSLSASIGDRVTITCRASQSINSYLNWYQQKPGKAPKLLIYTASSLLSGVPSRFSASGSWTDFSLTISSLQPEDFATYYCQQSFSTPYTFGQGTNLEIKRTVAAPSVFIFPPSDEQLKSGTASVVCLLNNFYPREAKVQWKVDNALQSGNSQESVTEQDSKDSTYSLSSTLTLSKADYEKHKVYACEVTHQGLSSPVTKSFNRGEC
heavy: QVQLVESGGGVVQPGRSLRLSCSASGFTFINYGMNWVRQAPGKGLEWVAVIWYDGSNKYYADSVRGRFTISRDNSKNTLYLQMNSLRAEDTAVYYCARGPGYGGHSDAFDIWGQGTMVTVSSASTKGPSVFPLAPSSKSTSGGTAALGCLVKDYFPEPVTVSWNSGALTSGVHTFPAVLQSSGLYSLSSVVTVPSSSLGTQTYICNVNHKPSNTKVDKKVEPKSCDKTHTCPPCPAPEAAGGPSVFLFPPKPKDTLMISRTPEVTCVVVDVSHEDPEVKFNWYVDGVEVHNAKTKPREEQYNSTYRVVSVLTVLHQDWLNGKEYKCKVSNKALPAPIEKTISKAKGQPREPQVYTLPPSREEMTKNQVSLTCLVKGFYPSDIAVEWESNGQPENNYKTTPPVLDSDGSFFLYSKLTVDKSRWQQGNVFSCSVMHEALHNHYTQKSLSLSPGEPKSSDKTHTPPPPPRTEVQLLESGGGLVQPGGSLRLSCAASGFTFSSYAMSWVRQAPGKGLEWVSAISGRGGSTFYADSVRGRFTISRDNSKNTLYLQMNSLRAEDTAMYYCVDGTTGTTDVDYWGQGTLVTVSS
B6 showed an EC50 (human OX40) of 4.96 nM and an EC50 (human PSMA [7]) of 6.7 nM.

B7: PR002067, anti-OX40 heavy-chain antibody R1026P079E12 (antibody, V domains shown)
VH: EVQLLESGGGLVQPGGSLRLSCAASGFTFSSYAMSWVRQAPGKGLEWVSAISGRGGSTFYADSVRGRFTISRDNSKNTLYLQMNSLRAEDTAMYYCVDGTTGTTDVDYWGQGTLVTVSS
With B7 the EC50 (human OX40) was 17.8 nM and the EC50 [8] was 0.232 nM.

B8: PR001760, anti-4-1BB heavy-chain antibody 1016P0011G10 (antibody, V domains shown)
VH: EVQLVESGGGVVQPGGSLRLSCAASGFTFSNYAMTWVRQAPEKGLEWVSSISGSGVSTYYADSVKGRFTISRDNSKNTLYLQMTRLTAEDTAVYFCAKEGSSETDDHYYNVDVWGQGTTVTVSS
B8 showed an EC50 (human 4-1BB [9]) of 3.76 nM, an EC50 (cynomolgus monkey 4-1BB) of 0.443 nM and an EC50 (human 4-1BB [10]) of 3.76 nM.

B9: PR002726, anti-CLDN18.2 monoclonal antibody 13E6F4 hIgG1 (antibody, V domains shown)
VH: EVQLLESGGGLVQPGGSLRLSCAASGFTFSSFVMSWVRQAPGKGLEWVSTISGSGRSTYYADSVKGRFTISRDNSKNTLHLQMNSLRAEDTAVYYCAKDAAAAGTKFDYWGQGTLVTVSS
VL: EIVLTQSPATLSLSPGERATLSCRASQSVSSYLAWYQQKPGQAPRLLIYDASNRATGIPARFSGSGSGTDFTLTISSLEPEDFAVYYCQQRSNWPLTFGGGTKVEIKR
Binder B9 has an EC50 (human CLDN18.2) of 4.98 nM.

B10: Anti-OX40 monoclonal antibody vonlerolizumab analog (antibody, V domains shown)
VH: EVQLVQSGAEVKKPGASVKVSCKASGYTFTDSYMSWVRQAPGQGLEWIGDMYPDNGDSSYNQKFRERVTITRDTSTSTAYLELSSLRSEDTAVYYCVLAPRWYFSVWGQGTLVTVSS
VL: DIQMTQSPSSLSASVGDRVTITCRASQDISNYLNWYQQKPGKAPKLLIYYTSRLRSGVPSRFSGSGSGTDFTLTISSLQPEDFATYYCQQGHTLPPTFGQGTKVEIKR
With B10 the EC50 [8] was 0.194 nM.

B11: Anti-4-1BB monoclonal antibody urelumab analog (antibody, V domains shown)
VH: QVQLQQWGAGLLKPSETLSLTCAVYGGSFSGYYWSWIRQSPEKGLEWIGEINHGGYVTYNPSLESRVTISVDTSKNQFSLKLSSVTAADTAVYYCARDYGPGNYDWYFDLWGRGTLVTVSS
VL: EIVLTQSPATLSLSPGERATLSCRASQSVSSYLAWYQQKPGQAPRLLIYDASNRATGIPARFSGSGSGTDFTLTISSLEPEDFAVYYCQQRSNWPPALTFGGGTKVEIKR
For B11, the EC50 (human 4-1BB [11]) was 1.51 nM, the EC50 (human 4-1BB [12]) was 0.459 nM and the EC50 (human 4-1BB [13]) was 0.459 nM. The EC50 (human 4-1BB [14]) was 1.01 nM, the EC50 (human 4-1BB [15]) was 0.347 nM and the EC50 (human 4-1BB [16]) was 0.424 nM. The EC50 (human 4-1BB [17]) was 0.794 nM and the EC50 (human 4-1BB [18]) was 1.51 nM.

B12: PR001331, anti-PSMA monoclonal antibody 2E8A1B1 hIgG1 (antibody, V domains shown)
VH: QVQLVESGGGVVQPGRSLRLSCSASGFTFINYGMNWVRQAPGKGLEWVAVIWYDGSNKYYADSVRGRFTISRDNSKNTLYLQMNSLRAEDTAVYYCARGPGYGGHSDAFDIWGQGTMVTVSS
VL: DIQMTQSPSSLSASIGDRVTITCRASQSINSYLNWYQQKPGKAPKLLIYTASSLLSGVPSRFSASGSWTDFSLTISSLQPEDFATYYCQQSFSTPYTFGQGTNLEIKR
In the case of B12, the EC50 (human PSMA [6]) is reported as 0.702 nM and the EC50 (human PSMA [7]) is reported as 2.58 nM.

Source: patent US20230303698A1 (published 2023)
